Experimental data published in PMC10786891, “Massively parallel profiling of RNA-targeting CRISPR-Cas13d”.

T1: EsCas13d, nuclease-dead (Eubacterium siraeum, UniProt B0MS50, R295A;H300A;R849A;H854A)
T1 sequence: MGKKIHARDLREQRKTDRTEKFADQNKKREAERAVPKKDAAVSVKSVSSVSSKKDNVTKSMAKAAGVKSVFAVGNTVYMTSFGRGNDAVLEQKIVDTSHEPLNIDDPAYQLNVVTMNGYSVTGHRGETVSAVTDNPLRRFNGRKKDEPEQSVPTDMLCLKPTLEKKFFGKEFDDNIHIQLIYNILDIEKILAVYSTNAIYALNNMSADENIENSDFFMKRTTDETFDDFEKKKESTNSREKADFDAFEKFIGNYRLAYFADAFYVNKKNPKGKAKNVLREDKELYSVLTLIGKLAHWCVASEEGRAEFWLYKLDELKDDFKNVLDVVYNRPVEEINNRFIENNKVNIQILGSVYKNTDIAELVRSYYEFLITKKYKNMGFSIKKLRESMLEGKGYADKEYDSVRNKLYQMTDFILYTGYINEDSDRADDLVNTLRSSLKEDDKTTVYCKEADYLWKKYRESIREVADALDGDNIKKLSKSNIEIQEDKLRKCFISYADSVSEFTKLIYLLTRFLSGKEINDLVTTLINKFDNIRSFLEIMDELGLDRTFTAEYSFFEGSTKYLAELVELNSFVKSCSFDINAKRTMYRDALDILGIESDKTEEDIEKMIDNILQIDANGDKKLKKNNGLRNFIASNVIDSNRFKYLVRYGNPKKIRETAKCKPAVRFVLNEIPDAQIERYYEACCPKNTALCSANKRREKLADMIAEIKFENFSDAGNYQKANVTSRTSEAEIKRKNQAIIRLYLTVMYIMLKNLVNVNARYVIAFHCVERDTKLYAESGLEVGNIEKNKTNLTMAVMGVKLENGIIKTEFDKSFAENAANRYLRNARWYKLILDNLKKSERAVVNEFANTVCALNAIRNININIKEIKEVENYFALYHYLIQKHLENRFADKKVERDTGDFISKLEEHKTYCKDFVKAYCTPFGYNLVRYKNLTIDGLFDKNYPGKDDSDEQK

B1: target 1 MT 5'PFS UGC 3'PFS CAC (mixed)
RNA 1: CACCCGUGCAAAAAUGCAGGGGUCUAAAACUGAGCGGAUAACCUCUCUAUGG
RNA 2: GGGAAUGGAUCCACAUCUACGAAUUCUGCCCAUAGAGAGGUUAUCCGCUCACACAGAUCGGAAGAGCACACGU
B2: target 1 insU 3' of 22,insG 3' of 16 (mixed)
RNA 1: CACCCGUGCAAAAAUGCAGGGGUCUAAAACUGAGCGGAUAACCUCUCUAUGG
RNA 2: GGGAAUGGAUCCACAUCUACGAAUUCGUACUCAUAGAGGAGGUUAUCCGCUCACCGAGAUCGGAAGAGCACACGU
B3: target 1 MT 5'PFS GGC 3'PFS UCC (mixed)
RNA 1: CACCCGUGCAAAAAUGCAGGGGUCUAAAACUGAGCGGAUAACCUCUCUAUGG
RNA 2: GGGAAUGGAUCCACAUCUACGAAUUCGGCCCAUAGAGAGGUUAUCCGCUCAUCCAGAUCGGAAGAGCACACGU
B4: target 1 MT 5'PFS ACA 3'PFS ACC (mixed)
RNA 1: CACCCGUGCAAAAAUGCAGGGGUCUAAAACUGAGCGGAUAACCUCUCUAUGG
RNA 2: GGGAAUGGAUCCACAUCUACGAAUUCACACCAUAGAGAGGUUAUCCGCUCAACCAGAUCGGAAGAGCACACGU
B5: target 1 MT 5'PFS UAC 3'PFS ACU (mixed)
RNA 1: CACCCGUGCAAAAAUGCAGGGGUCUAAAACUGAGCGGAUAACCUCUCUAUGG
RNA 2: GGGAAUGGAUCCACAUCUACGAAUUCUACCCAUAGAGAGGUUAUCCGCUCAACUAGAUCGGAAGAGCACACGU
B6: target 1 MT 5'PFS ACA 3'PFS ACA (mixed)
RNA 1: CACCCGUGCAAAAAUGCAGGGGUCUAAAACUGAGCGGAUAACCUCUCUAUGG
RNA 2: GGGAAUGGAUCCACAUCUACGAAUUCACACCAUAGAGAGGUUAUCCGCUCAACAAGAUCGGAAGAGCACACGU
B7: target 1 MT 5'PFS UGA 3'PFS CCG (mixed)
RNA 1: CACCCGUGCAAAAAUGCAGGGGUCUAAAACUGAGCGGAUAACCUCUCUAUGG
RNA 2: GGGAAUGGAUCCACAUCUACGAAUUCUGACCAUAGAGAGGUUAUCCGCUCACCGAGAUCGGAAGAGCACACGU
B8: target 1 MT 5'PFS GUU 3'PFS UUA (mixed)
RNA 1: CACCCGUGCAAAAAUGCAGGGGUCUAAAACUGAGCGGAUAACCUCUCUAUGG
RNA 2: GGGAAUGGAUCCACAUCUACGAAUUCGUUCCAUAGAGAGGUUAUCCGCUCAUUAAGAUCGGAAGAGCACACGU
B9: target 1 MT 5'PFS GUU 3'PFS AUC (mixed)
RNA 1: CACCCGUGCAAAAAUGCAGGGGUCUAAAACUGAGCGGAUAACCUCUCUAUGG
RNA 2: GGGAAUGGAUCCACAUCUACGAAUUCGUUCCAUAGAGAGGUUAUCCGCUCAAUCAGAUCGGAAGAGCACACGU
B10: target 1 MT 5'PFS UAG 3'PFS UAC (mixed)
RNA 1: CACCCGUGCAAAAAUGCAGGGGUCUAAAACUGAGCGGAUAACCUCUCUAUGG
RNA 2: GGGAAUGGAUCCACAUCUACGAAUUCUAGCCAUAGAGAGGUUAUCCGCUCAUACAGAUCGGAAGAGCACACGU
B11: target 1 MT 5'PFS UAA 3'PFS CUG (mixed)
RNA 1: CACCCGUGCAAAAAUGCAGGGGUCUAAAACUGAGCGGAUAACCUCUCUAUGG
RNA 2: GGGAAUGGAUCCACAUCUACGAAUUCUAACCAUAGAGAGGUUAUCCGCUCACUGAGAUCGGAAGAGCACACGU
B12: target 1 MT 5'PFS GUU 3'PFS UUC (mixed)
RNA 1: CACCCGUGCAAAAAUGCAGGGGUCUAAAACUGAGCGGAUAACCUCUCUAUGG
RNA 2: GGGAAUGGAUCCACAUCUACGAAUUCGUUCCAUAGAGAGGUUAUCCGCUCAUUCAGAUCGGAAGAGCACACGU
B13: target 1 MT 5'PFS UCA 3'PFS CUC (mixed)
RNA 1: CACCCGUGCAAAAAUGCAGGGGUCUAAAACUGAGCGGAUAACCUCUCUAUGG
RNA 2: GGGAAUGGAUCCACAUCUACGAAUUCUCACCAUAGAGAGGUUAUCCGCUCACUCAGAUCGGAAGAGCACACGU
B14: target 1 insA 3' of 17,insU 3' of 5 (mixed)
RNA 1: CACCCGUGCAAAAAUGCAGGGGUCUAAAACUGAGCGGAUAACCUCUCUAUGG
RNA 2: GGGAAUGGAUCCACAUCUACGAAUUCGUACCAUAGAAGAGGUUAUCCGUCUCACCGAGAUCGGAAGAGCACACGU
B15: target 1 MT 5'PFS UAG 3'PFS UAU (mixed)
RNA 1: CACCCGUGCAAAAAUGCAGGGGUCUAAAACUGAGCGGAUAACCUCUCUAUGG
RNA 2: GGGAAUGGAUCCACAUCUACGAAUUCUAGCCAUAGAGAGGUUAUCCGCUCAUAUAGAUCGGAAGAGCACACGU
B16: target 1 MT 5'PFS UGA 3'PFS CCU (mixed)
RNA 1: CACCCGUGCAAAAAUGCAGGGGUCUAAAACUGAGCGGAUAACCUCUCUAUGG
RNA 2: GGGAAUGGAUCCACAUCUACGAAUUCUGACCAUAGAGAGGUUAUCCGCUCACCUAGAUCGGAAGAGCACACGU
B17: target 1 MT 5'PFS GUU 3'PFS UUG (mixed)
RNA 1: CACCCGUGCAAAAAUGCAGGGGUCUAAAACUGAGCGGAUAACCUCUCUAUGG
RNA 2: GGGAAUGGAUCCACAUCUACGAAUUCGUUCCAUAGAGAGGUUAUCCGCUCAUUGAGAUCGGAAGAGCACACGU
B18: target 1 MT 5'PFS GGC 3'PFS UCG (mixed)
RNA 1: CACCCGUGCAAAAAUGCAGGGGUCUAAAACUGAGCGGAUAACCUCUCUAUGG
RNA 2: GGGAAUGGAUCCACAUCUACGAAUUCGGCCCAUAGAGAGGUUAUCCGCUCAUCGAGAUCGGAAGAGCACACGU
B19: target 1 MT 5'PFS UAA 3'PFS CUC (mixed)
RNA 1: CACCCGUGCAAAAAUGCAGGGGUCUAAAACUGAGCGGAUAACCUCUCUAUGG
RNA 2: GGGAAUGGAUCCACAUCUACGAAUUCUAACCAUAGAGAGGUUAUCCGCUCACUCAGAUCGGAAGAGCACACGU
B20: target 1 MT 5'PFS UAG 3'PFS UAG (mixed)
RNA 1: CACCCGUGCAAAAAUGCAGGGGUCUAAAACUGAGCGGAUAACCUCUCUAUGG
RNA 2: GGGAAUGGAUCCACAUCUACGAAUUCUAGCCAUAGAGAGGUUAUCCGCUCAUAGAGAUCGGAAGAGCACACGU
B21: target 1 MT 5'PFS CCU 3'PFS CUU (mixed)
RNA 1: CACCCGUGCAAAAAUGCAGGGGUCUAAAACUGAGCGGAUAACCUCUCUAUGG
RNA 2: GGGAAUGGAUCCACAUCUACGAAUUCCCUCCAUAGAGAGGUUAUCCGCUCACUUAGAUCGGAAGAGCACACGU
B22: target 1 MT 5'PFS ACG 3'PFS AAG (mixed)
RNA 1: CACCCGUGCAAAAAUGCAGGGGUCUAAAACUGAGCGGAUAACCUCUCUAUGG
RNA 2: GGGAAUGGAUCCACAUCUACGAAUUCACGCCAUAGAGAGGUUAUCCGCUCAAAGAGAUCGGAAGAGCACACGU
B23: target 1 MT 5'PFS CCU 3'PFS CUG (mixed)
RNA 1: CACCCGUGCAAAAAUGCAGGGGUCUAAAACUGAGCGGAUAACCUCUCUAUGG
RNA 2: GGGAAUGGAUCCACAUCUACGAAUUCCCUCCAUAGAGAGGUUAUCCGCUCACUGAGAUCGGAAGAGCACACGU
B24: target 1 MT 5'PFS GGC 3'PFS UCA (mixed)
RNA 1: CACCCGUGCAAAAAUGCAGGGGUCUAAAACUGAGCGGAUAACCUCUCUAUGG
RNA 2: GGGAAUGGAUCCACAUCUACGAAUUCGGCCCAUAGAGAGGUUAUCCGCUCAUCAAGAUCGGAAGAGCACACGU
B25: target 1 MT 5'PFS UCA 3'PFS CUA (mixed)
RNA 1: CACCCGUGCAAAAAUGCAGGGGUCUAAAACUGAGCGGAUAACCUCUCUAUGG
RNA 2: GGGAAUGGAUCCACAUCUACGAAUUCUCACCAUAGAGAGGUUAUCCGCUCACUAAGAUCGGAAGAGCACACGU
B26: target 1 MT 5'PFS GGC 3'PFS UCU (mixed)
RNA 1: CACCCGUGCAAAAAUGCAGGGGUCUAAAACUGAGCGGAUAACCUCUCUAUGG
RNA 2: GGGAAUGGAUCCACAUCUACGAAUUCGGCCCAUAGAGAGGUUAUCCGCUCAUCUAGAUCGGAAGAGCACACGU
B27: target 1 MT 5'PFS ACA 3'PFS ACU (mixed)
RNA 1: CACCCGUGCAAAAAUGCAGGGGUCUAAAACUGAGCGGAUAACCUCUCUAUGG
RNA 2: GGGAAUGGAUCCACAUCUACGAAUUCACACCAUAGAGAGGUUAUCCGCUCAACUAGAUCGGAAGAGCACACGU
B28: target 1 MT 5'PFS UAA 3'PFS CUU (mixed)
RNA 1: CACCCGUGCAAAAAUGCAGGGGUCUAAAACUGAGCGGAUAACCUCUCUAUGG
RNA 2: GGGAAUGGAUCCACAUCUACGAAUUCUAACCAUAGAGAGGUUAUCCGCUCACUUAGAUCGGAAGAGCACACGU

The binders below were run against T1, EsCas13d, nuclease-dead (assay: crRNA (strand 1, pre-loaded); Mg2+; 40 mM Tris-HCl pH 7.5, 150 mM NaCl, 6 mM MgCl2, 1 mM DTT, 0.1% Tween-20, 0.2 mg/ml BSA; 25 C; 10 min per concentration, then washed). Conditions: tags: His6-TwinStrep-SUMO cleaved; N-terminal SNAP kept (SNAP-Surface 488); label: 3' end held by stalled T7 RNA polymerase.

B1 and B2 are within 1.5-fold of each other in Kd: ~65 nM for the first, 48 ± 16 nM for the second.

Going from B3 to B4, the Kd rises from 17.8 ± 2.5 nM to ~47.5 nM (2.7-fold). The first binds more tightly here.

Going from B5 to B6, the Kd rises from 11.2 ± 3.5 nM to ~31 nM (2.8-fold).

First: B7
Second: B8
The Kd of the first is 3.2-fold higher: ~42.5 nM for the first, 13.1 ± 2.5 nM for the second.

B9 and B10 are within error of each other in Kd: 19.3 ± 3.55 nM for the first, 16.8 ± 2.05 nM for the second.

First: B11
Second: B12
The Kd of the first is 2.4-fold higher: 25.8 ± 5.25 nM for the first, 10.6 ± 1.45 nM for the second. The second binds more tightly here.

Going from B13 to B14, the Kd rises from 12.9 ± 3.1 nM to 25.8 ± 2.8 nM (2-fold).

B15 and B16 are within error of each other in Kd: 45 ± 9 nM for the first, 36 ± 15 nM for the second.

B17 and B18 are the same in Kd: 11.1 ± 1.05 nM for the first, 11.1 ± 1.15 nM for the second.

B19 and B20 are within error of each other in Kd: 74 ± 28 nM for the first, 73.5 ± 28 nM for the second.

Compared with B21, B22 is 4-fold higher in Kd: 6.65 ± 1.95 nM for the first, 26.5 ± 11 nM for the second. The first binds more tightly here.

B23 and B24 are within error of each other in Kd: 21 ± 7 nM for the first, 17.1 ± 3.7 nM for the second.

B25 and B26 are within error of each other in Kd: 9.45 ± 2.55 nM for the first, 10 ± 1.2 nM for the second.

Compared with B27, B28 is 5.2-fold higher in Kd: 9.3 ± 2.9 nM for the first, 48 ± 19 nM for the second.
